# ± gives the standard deviation of the averaged measurements.
# B1: library; a variant is named by its letters at N, in order (parent)
# chain: GCUGUCACCGGUGCUUGGUACGUUAUAUUCAGCCGGUCUGAUGAGUCUNNNNNNAGACGAAACAGC
# Tests used:
# (6R,S)-folinic acid [1] = variants of: B1; experiment: normalized RNA/DNA level without ligand (relative to sTRSVctl = 100) (log10 (% of sTRSVctl)); HEK293T overexpressing SLC46A1; higher = less ribozyme self-cleavage, higher mRNA level; conditions: without (6R,S)-folinic acid; ligand present: no
# Summary of the method: (§1)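 RNA level was computed as RNA reads over DNA reads divided by a spiked-in non-cleaving sequence or by the top sequences, then scaled and log-transformed. Scaling was ×100 with log10, the top group was 25 sequences, and the threshold was ≥100 DNA reads. The reads came from HEK293T cells transfected at 4 µg per 6-well well with ribozyme switch library plasmids (mCherry, or eGFP in some ligand experiments). Total RNA was extracted with EDTA 72 h after transfection, with any ligand added 1 h before it.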
# (6R,S)-folinic acid [2] = variants of: B1; experiment: normalized RNA/DNA level with ligand (relative to sTRSVctl = 100) (log10 (% of sTRSVctl)); HEK293T overexpressing SLC46A1; ligand concentration (+) RNA-Seq: 6 mM; higher = less ribozyme self-cleavage, higher mRNA level; conditions: with (6R,S)-folinic acid; ligand present: yes
# Summary of the method: as §1
Variant,"normalized RNA/DNA level without ligand (log10) ((6R,S)-folinic acid [1])","normalized RNA/DNA level with ligand (log10) ((6R,S)-folinic acid [2])"
CUCCUA,2.02 ± 0.023,2.01 ± 0.033
GUCCUA,1.994 ± 0.015,2.02 ± 0.043
UUCCUA,2.022 ± 0.0051,2.033 ± 0.011
AUCCUC,2.1 ± 0.022,2.02 ± 0.025
CUCCUC,2.06 ± 0.057,1.99 ± 0.053
GUCCUC,2.024 ± 0.02,2.05 ± 0.048
UUCCUC,2.096 ± 0.011,2.062 ± 0.02
AUCCUG,1.992 ± 0.0066,2.02 ± 0.042
CUCCUG,2.07 ± 0.016,2.064 ± 0.014
GUCCUG,2.02 ± 0.034,2.01 ± 0.021
AUCCUU,2.004 ± 0.01,2.02 ± 0.032
CUCCUU,2.014 ± 0.016,2 ± 0.027
GUCCUU,2.005 ± 0.01,2.008 ± 0.019
UUCCUU,2.02 ± 0.017,2.034 ± 0.018
AUCGAA,1.974 ± 0.0042,2 ± 0.02
CUCGAA,1.994 ± 0.009,1.988 ± 0.018
GUCGAA,1.9847 ± 0.0012,2.02 ± 0.026
UUCGAA,1.947 ± 0.018,2 ± 0.027
CUCGAC,2.017 ± 0.0083,2.01 ± 0.02
UUCGAC,1.994 ± 0.0022,2.02 ± 0.037

Variant,"normalized RNA/DNA level without ligand (log10) ((6R,S)-folinic acid [1])","normalized RNA/DNA level with ligand (log10) ((6R,S)-folinic acid [2])"
GUCGAG,1.947 ± 0.0022,2 ± 0.036
AUCGAU,1.98 ± 0.025,2.02 ± 0.031
CUCGAU,1.99 ± 0.0044,1.991 ± 0.0061
UUCGAU,1.954 ± 0.0023,2.02 ± 0.033
AUCGCA,2.01 ± 0.024,2 ± 0.032
UUCGCA,1.988 ± 0.016,2 ± 0.048
AUCGCC,2.041 ± 0.014,2 ± 0.053
CUCGCC,2.1 ± 0.027,2.07 ± 0.054
UUCGCC,2.017 ± 0.0095,2.01 ± 0.025
AUCGCG,1.926 ± 0.013,2.02 ± 0.019
CUCGCG,2.038 ± 0.016,2.03 ± 0.038
GUCGCG,1.96 ± 0.026,1.996 ± 0.0077
UUCGCG,1.91 ± 0.029,1.968 ± 0.0034
GUCGCU,2.048 ± 0.0053,2.002 ± 0.02
UUCGCU,1.981 ± 0.014,1.99 ± 0.026
CUCGGA,2.044 ± 0.0022,2.0131 ± 0.00036
GUCGGA,1.997 ± 0.0032,2.02 ± 0.045
UUCGGA,1.961 ± 0.0071,2.024 ± 0.0051
AUCGGC,2.054 ± 0.013,2.02 ± 0.043
CUCGGC,2.05 ± 0.027,2.04 ± 0.034

Variant,"normalized RNA/DNA level without ligand (log10) ((6R,S)-folinic acid [1])","normalized RNA/DNA level with ligand (log10) ((6R,S)-folinic acid [2])"
GUCGGC,2.004 ± 0.0028,2.03 ± 0.025
AUCGGG,1.923 ± 0.017,2.05 ± 0.047
CUCGGG,2.0341 ± 0.00097,2.07 ± 0.046
GUCGGG,1.998 ± 0.011,2.05 ± 0.051
UUCGGG,1.86 ± 0.024,2.01 ± 0.052
AUCGGU,1.94 ± 0.02,1.96 ± 0.032
CUCGGU,2.03 ± 0.034,2.02 ± 0.028
GUCGGU,2.018 ± 0.0045,2.06 ± 0.027
UUCGGU,1.962 ± 0.013,2 ± 0.021
AUCGUA,1.982 ± 0.008,1.993 ± 0.013
CUCGUA,2.004 ± 0.016,1.98 ± 0.046
UUCGUA,1.96 ± 0.025,1.97 ± 0.02
AUCGUC,2.106 ± 0.011,2.06 ± 0.027
CUCGUC,2.15 ± 0.022,2.12 ± 0.035
GUCGUC,2.02 ± 0.03,2.02 ± 0.034
UUCGUC,2.1 ± 0.024,2.06 ± 0.068
AUCGUG,1.906 ± 0.0026,2.01 ± 0.026
CUCGUG,1.9917 ± 0.0012,2.013 ± 0.018
